# According to patent US8691772B2, “HSP60, HSP60 peptides and T cell vaccines for immunomodulation” (Yeda Research and Development Co. Ltd., priority 2005, dated 2014):
# What was measured:
# [1] = system: ERK, Pyk2, AKT, MLC; assay: Western blotting of T-cell lysates (phosphorylation) and cell morphology; assay type: cell-based, human
# Protocol: Western blotting of T-cell lysates. T cells were incubated (24 hr, 37° C.) in starvation medium (RPMI medium without serum). Aliquots (5×10^6/sample) of the starved cells were preincubated (for various intervals) with different concentrations of HSP60 prior to exposure to SDF-1α (100 ng/ml, 10 min, 37° C., tissue culture conditions). These reactions were terminated by freezing the plates (−70° C., 10 min). The plates were thawed, and the cells solubilized by incubating (60 min, 4° C.) in lysis buffer [EDTA (0.5 mM), NaCL (150 mM), NaF (10 nM), Tris pH 7.5 (25 mM), Triton X-100 (1%), PMSF (200 pg/ml), and phosphatase inhibitor cocktail (1%)]. Lysates were cleared by centrifugation (30 min, 14×10^3 rpm, 4° C.), and the resulting supernatants analyzed for protein content. Sample buffer was added, the samples were boiled, and equal amounts of proteins were separated by 10% SDS-PAGE and transferred to nitrocellulose membranes. The membranes were blocked with TBST buffer [Tris pH 7.5 (20 mM), NaCl (135 mM) and Tween 20 (0.1%)] containing low-fat milk (5%), and probed with the following mAb in the same buffer: anti-phosphorylated (p) ERK (0.2 μg/ml), anti-total (t) ERK (diluted 1:20,000), anti-pPyk2 (1.5 μg/ml), anti-tPyk2 (0.2 μg/ml), anti-pAKT (diluted 1:1000), anti-tAKT (diluted 1:1000), anti-pMLC (diluted 1:250), and anti-tMLC (diluted 1:1000), anti-pSTAT3 (diluted 1:250), and anti-STAT3 (diluted 1:500). Immunoreactive protein bands were visualized using a horseradish peroxidase-conjugated goat anti-mouse Ab and the enhanced ECL system. Phosphorylation levels of the 3-5 independent experiments were estimated by densitometry, and an average percentage of phosphorylation±SD was calculated as OD of pERK/tERK, or pPyk2/tPyk2, or pAKT/tAKT, pMLC/tMLC, or pSTAT3/tSTAT3×100%.
# Cell morphology. T cells (3×10^6 cells/ml) were seeded in flat-bottom, 24-well plates in 500 μl of RPMI on coverslips coated with FN (25 μg/ml). Some T cells were pretreated (1 hr, 37° C., in a 7.5% CO2 humidified atmosphere) with anti-TLRs mAb (20 μg/ml), and then with HSP60 (1 hr). After which, SDF-1α (200 ng/ml) was added, and the cells allowed to adhere (30 min, 37° C., in a 7.5% CO2 humidified atmosphere). The cells were then fixed in 3.7% paraformaldehyde and permeabilized (5 min, room temperature) with 0.5% TritonX-100. For actin visualization, cells were stained with rhodamine-labeled phalloidin (diluted 1/100), and examined with a laser-scanning confocal microscope (LSM510, Zeiss).
# [2] = system: DTH; assay: DTH assay (adoptive transfer, oxazolone); assay type: in vivo, BALB/c mice; conditions: oxazolone-reactive lymph node cells exposed in vitro to 1 μg/ml for 1 hr; ear swelling 24 hr
# Protocol: DTH assays. BALB/c mice (females; 1.5 months of age) were sensitized by painting of their shaved abdominal walls with Oxazolone (2%) emulsified in 100 μl of acetone/olive oil (Sigma-Aldrich). On day 5, mice were sacrificed, their draining (inguinal, mesenteric, and cervical) lymph nodes were collected, and a single cell suspension was prepared. The cells were treated with HSP60 (1 μg/ml; 1 hr; tissue culture conditions), washed, and injected (5×10^7 cells per mouse) i.v. into the tails of naive mice (at least 6 mice per group). Painting of the earlobes with oxazolone (10 μl of 0.5% in acetone/olive oil), which generates a DTH response, was performed immediately after cell inoculation. The area of the ears that was painted was measured before challenge and 24 hr later with a micrometer. Changes in earlobe thickness are indicative of DTH reactivity. All animal studies were performed in compliance with and were approved by laws and animal welfare guidelines of The Weizmann Institute of Science (IACUC).
# [3] = system: T-bet and GATA-3; assay: T-bet and GATA-3 expression in oxazolone-reactive mouse T cells; assay type: cell-based; conditions: 1 ng/ml for 2 hr
# Protocol: Western blot analysis of T-cell nuclear extracts. Purified T cells (5×10^6) were preincubated with different concentrations of HSP60 for the indicated periods of time (37° C. in a 7% CO2, humidified atmosphere). […] T cells were lysed in 10 mM HEPES, 1.5 mM MgCl2, 1 mM dithiothreitol (DTT), 1 mM PMSF, 0.5% Nonidet P-40. The lysates were incubated on ice for 10 min and centrifuged at 2000 rpm for 10 min at 4° C. The supernatants (cytoplasmic extracts) were transferred and the pellet (nuclei) was suspended in buffer containing 30 mM HEPES, 450 mM NaCl, 25% Glycerol, 0.5 mM EDTA, 6 mM DTT, 12 mM MgCl2 1 mM PMSF, 10 μg/ml leupeptin, 10 μg/ml pepstatin, 1% phosphatase inhibitor cocktail, and the suspension was incubated on ice for 30 min. The lysates were cleared by centrifugation (30 min, 14×10^3 rpm, 4° C.), and the resulting supernatants analyzed for protein content. For NFATp analysis nuclear extracts were prepared with a NE-PER Nuclear and Cytoplasmic Extraction reagent (Pierce, Rockford, Ill.) according to the manufacturer's protocol. Sample buffer was then added and, after boiling, the samples, containing equal amounts of proteins, were separated on 10% SDS-PAGE gel and transferred to nitrocellulose membranes. […]
# [4] = human T cells, SDF-1α 100 ng/ml, 10 min
molecule,measurement,setting,value
HSP60: recombinant human heat shock protein 60 (StressGen Biotechnologies) (protein) AKDVKFGADARALMLQGVDLLADAVAVTMGPKGRTVIIEQSWGSPKVTKDGVTVAKSIDLKDKYKNIGAKLVQDVANNTNEEAGDGTTTATVLARSIAKEGFEKISKGANPVEIRRGVMLAVDAVIAELKKQSKPVTTPEEIAQVATISANGDKEIGNIISDAMKKVGRKGVITVKDGKTLNDELEIIEGMKFDRGYISPYFINTSKGQKCEFQDAYVLLSEKKISSIQSIVPALEIANAHRKPLVIIAEDVDGEALSTLVLNRLKVGLQVVAVKAPGFGDNRKNQLKDMAIATGGAVFGEEGLTLNLEDVQPHDLGKVGEVIVTKDDAMLLKGKGDKAQIEKRIQEIIEQLDVTTSEYEKEKLNERLAKLSDGVAVLKVGGTSDVEVNEKKDRVTDALNATRAAVEEGIVLGGGCALLRCIPALDSLTPANEDQKIGIEIIKRTLKIPAMTIAKNAGVEGSLIVEKIMQSSSEVGYDAMAGDFVNMVEKGIIDPTKVVRTALLDAAGVASLLTTAEVVVTEIPKEEKDPGMGAMGGMGGGMGGGMF,SDF-1α-induced polarized morphology,"[1]; FN-coated coverslips, HSP60 1 μg/ml",inhibits
same,SDF-1α-induced phosphorylation of MLC,"[1]; HSP60 1 hr then SDF-1α 100 ng/ml, 10 min",inhibits SDF-1α-induced phosphorylation of MLC
same,phosphorylation of MLC,"[1]; HSP60 1 hr, no SDF-1α",induces phosphorylation of MLC
same,SDF-1α-induced AKT phosphorylation,[1]; [4],inhibits
same,SDF-1α-induced ERK phosphorylation,[1]; [4],inhibits
same,SDF-1α-induced Pyk2 phosphorylation,[1]; [4],inhibits
same,inhibition of ability to adoptively transfer DTH,[2],50%
same,GATA-3 expression,[3],up-regulation of GATA-3 expression
same,T-bet expression,[3],down-regulation of T-bet
